The target in this data set is T1, ZFP-CRP Del 180 (CRP 1-180 fused to human zinc fingers ZFP1/ZFP2) (Escherichia coli / Homo sapiens) (UniProt P0ACJ8).
T1 sequence: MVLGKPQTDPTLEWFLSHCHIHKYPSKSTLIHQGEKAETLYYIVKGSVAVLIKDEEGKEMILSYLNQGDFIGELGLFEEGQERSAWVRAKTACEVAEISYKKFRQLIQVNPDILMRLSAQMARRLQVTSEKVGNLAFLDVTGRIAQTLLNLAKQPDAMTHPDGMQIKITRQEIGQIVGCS
The data set can be described thus: cell_activity.

From patent publication US20100136663 come the findings set out here.

Take “ATCGATAAGCTTACTCCCCATCCCCCTGTTGACAATTAATCATCGGCTCGTATAATGTGTGGAATTGTGAGCGGATAACAATTTCGCGGCGGGGGCGGCGGGGACACAGGAAACAGGATCAAATTATGCCTGTCGAC (double strand)”: the activity (fold repression) (E. coli EGFP reporter with 1 mM IPTG, assignment of SEQ 8 to pEGFP-R inferred) stood at 1.5. Sequence “ATCGATAAGCTTGCGGCGGGGGCGGCGGGGACTCCCCATCCCCCTGTTGACAATTAATCATCGGCTCGTATAATGTGTGGAATTGTGAGCGGATAACAATTTCACACAGGAAACAGGATCAAATTATGCCTGTCGAC (double strand)” gave an activity (fold activation) (E. coli EGFP reporter without IPTG, 2-fold with 1 mM IPTG, assignment of SEQ 7 to pEGFP-A inferred) of 3.
